Patent publication US20190391146A1

B1: bivalent Fab No. 8 (HCVR SEQ ID NO: 5 / LCVR SEQ ID NO: 6) (Fab, V domains shown)
VH: QVQLVQSGAEVKKPGSSVKVSCKASGGTFSGYYISWVRQAPGQGLEWMGGIIPISGRANYAQKFQGRVTITADESTSTAYMELSSLRSEDTAVYYCARSRSYYHFDLWGQGTLVTVSS
VL: DIALTQPASVSGSPGQSITISCTGTSSDVGRYNSVSWYQQHPGKAPKLMIYRVSKRPSGVSNRFSGSKSGNTASLTISGLQAEDEADYYCQSWASLSNVVFGGGTKLTVLG
B2: bivalent Fab No. 6 (HCVR SEQ ID NO: 3 / LCVR SEQ ID NO: 4) (Fab, V domains shown)
VH: EVQLLESGGGLVQPGGSLRLSCAASGFTFRGYYMSWVRQAPGKGLEWVSSISGFSSNTYYADSVKGRFTISRDNSKNTLYLQMNSLRAEDTAVYYCARVRYLAYAFDYWGQGTLVTVSS
VL: DIELTQPPSVSVSPGQTASITCSGDSLPDKRAYWYQQKPGQAPVLVIYGDSHRPSGIPERFSGSNSGNTATLTISGTQAEDEADYYCSSWGSRTWVFGGGTKLTVLG

Biological target: Mycobacteria modified Low Density Lipoprotein (MtLDL) (human) (UniProt P04114)
Test: sandwich ELISA, value told of the pair No. 6 with No. 8

Binder | specific signal, fold above native LDL background
B1 | > 4 fold
B2 | > 4 fold
